Publication PMC7470129, “Synthesis and structure-activity relationships of cerebroside analogues as substrates of cerebroside sulphotransferase and discovery of a competitive inhibitor” (Journal of Enzyme Inhibition and Medicinal Chemistry, 2020)

T1: galactosylceramide (cerebroside) sulphotransferase (CST) (Homo sapiens, UniProt Q99999)
T1 construct: gene GAL3ST1
T1 sequence (Q99999 1-423): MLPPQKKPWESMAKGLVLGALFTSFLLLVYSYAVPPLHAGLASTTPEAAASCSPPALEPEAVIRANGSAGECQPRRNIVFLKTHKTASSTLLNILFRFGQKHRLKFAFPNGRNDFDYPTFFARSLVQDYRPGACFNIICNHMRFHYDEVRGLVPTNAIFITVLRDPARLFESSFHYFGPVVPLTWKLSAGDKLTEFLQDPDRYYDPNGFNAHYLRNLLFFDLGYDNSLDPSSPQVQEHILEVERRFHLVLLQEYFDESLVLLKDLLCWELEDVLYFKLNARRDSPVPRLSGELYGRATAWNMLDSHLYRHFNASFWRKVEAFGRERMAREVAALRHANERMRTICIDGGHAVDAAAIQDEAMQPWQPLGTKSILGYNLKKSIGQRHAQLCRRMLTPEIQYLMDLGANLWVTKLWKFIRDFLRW


How the values were obtained:
Experiment in all cases: capillary electrophoresis enzyme assay, Michaelis-Menten kinetics (Km)
[1] = molecular target: T1, galactosylceramide (cerebroside) sulphotransferase (CST); type: biochemical
[2] = substrate: CCCCCCCCCCCCCC[C@@H](O)[C@@H](O)[C@H](CO[C@H]1O[C@H](CO)[C@H](O)[C@H](O)[C@H]1O)NC(=O)CCCC; type: biochemical, Homo sapiens; settings: PAPS
[3] = substrate: CCCCCCCCCCCCCCCCCCC(=O)N[C@@H](CO[C@H]1O[C@H](CO)[C@H](O)[C@H](O)[C@H]1O)[C@H](O)[C@H](O)CCCCCCCCCCCCCC; type: biochemical, Homo sapiens; settings: PAPS

Molecule	Km [1] [µM]	Km [2] [µM]	Vmax [2] [µmol/min/mg]	Km [3] [µM]	Vmax [3] [µmol/min/mg]
CCCCCCCCCCCCCCCCCCCCCCCCCC(=O)N[C@@H](CO[C@H]1O[C@H](CO)[C@H](O)[C@H](O)[C@H]1O)[C@H](O)[C@H](O)CCCCCCCCCCCCCC [compound 18, KRN7000]	438				
CCCCCCCCCCCCCCCCCCCCCCCCCC(=O)N[C@@H](CO[C@@H]1O[C@H](CO)[C@H](O)[C@H](O)[C@H]1O)[C@H](O)[C@H](O)CCCCCCCCCCCCCC [compound 10, β-KRN7000]	550				
galactosylceramide (cerebroside) sulphotransferase (CST) (Homo sapiens) (protein) MLPPQKKPWESMAKGLVLGALFTSFLLLVYSYAVPPLHAGLASTTPEAAASCSPPALEPEAVIRANGSAGECQPRRNIVFLKTHKTASSTLLNILFRFGQKHRLKFAFPNGRNDFDYPTFFARSLVQDYRPGACFNIICNHMRFHYDEVRGLVPTNAIFITVLRDPARLFESSFHYFGPVVPLTWKLSAGDKLTEFLQDPDRYYDPNGFNAHYLRNLLFFDLGYDNSLDPSSPQVQEHILEVERRFHLVLLQEYFDESLVLLKDLLCWELEDVLYFKLNARRDSPVPRLSGELYGRATAWNMLDSHLYRHFNASFWRKVEAFGRERMAREVAALRHANERMRTICIDGGHAVDAAAIQDEAMQPWQPLGTKSILGYNLKKSIGQRHAQLCRRMLTPEIQYLMDLGANLWVTKLWKFIRDFLRW		358	0.0449	521	0.0519
